These results are taken from US20050042227A1.

Assay in all cases: cell-based or functional assay
Assay [1] deals with LRP1 receptors on GM244 human Pompe fibroblasts (human) (UniProt Q07954).
A further assay deals with LRP.
Assay [2] addresses mannose-6-phosphate receptor on GM244 human fibroblasts (human) (UniProt O00264).

LRP1 receptors on GM244 human Pompe fibroblasts (human), sequence (Q07954 20-4544): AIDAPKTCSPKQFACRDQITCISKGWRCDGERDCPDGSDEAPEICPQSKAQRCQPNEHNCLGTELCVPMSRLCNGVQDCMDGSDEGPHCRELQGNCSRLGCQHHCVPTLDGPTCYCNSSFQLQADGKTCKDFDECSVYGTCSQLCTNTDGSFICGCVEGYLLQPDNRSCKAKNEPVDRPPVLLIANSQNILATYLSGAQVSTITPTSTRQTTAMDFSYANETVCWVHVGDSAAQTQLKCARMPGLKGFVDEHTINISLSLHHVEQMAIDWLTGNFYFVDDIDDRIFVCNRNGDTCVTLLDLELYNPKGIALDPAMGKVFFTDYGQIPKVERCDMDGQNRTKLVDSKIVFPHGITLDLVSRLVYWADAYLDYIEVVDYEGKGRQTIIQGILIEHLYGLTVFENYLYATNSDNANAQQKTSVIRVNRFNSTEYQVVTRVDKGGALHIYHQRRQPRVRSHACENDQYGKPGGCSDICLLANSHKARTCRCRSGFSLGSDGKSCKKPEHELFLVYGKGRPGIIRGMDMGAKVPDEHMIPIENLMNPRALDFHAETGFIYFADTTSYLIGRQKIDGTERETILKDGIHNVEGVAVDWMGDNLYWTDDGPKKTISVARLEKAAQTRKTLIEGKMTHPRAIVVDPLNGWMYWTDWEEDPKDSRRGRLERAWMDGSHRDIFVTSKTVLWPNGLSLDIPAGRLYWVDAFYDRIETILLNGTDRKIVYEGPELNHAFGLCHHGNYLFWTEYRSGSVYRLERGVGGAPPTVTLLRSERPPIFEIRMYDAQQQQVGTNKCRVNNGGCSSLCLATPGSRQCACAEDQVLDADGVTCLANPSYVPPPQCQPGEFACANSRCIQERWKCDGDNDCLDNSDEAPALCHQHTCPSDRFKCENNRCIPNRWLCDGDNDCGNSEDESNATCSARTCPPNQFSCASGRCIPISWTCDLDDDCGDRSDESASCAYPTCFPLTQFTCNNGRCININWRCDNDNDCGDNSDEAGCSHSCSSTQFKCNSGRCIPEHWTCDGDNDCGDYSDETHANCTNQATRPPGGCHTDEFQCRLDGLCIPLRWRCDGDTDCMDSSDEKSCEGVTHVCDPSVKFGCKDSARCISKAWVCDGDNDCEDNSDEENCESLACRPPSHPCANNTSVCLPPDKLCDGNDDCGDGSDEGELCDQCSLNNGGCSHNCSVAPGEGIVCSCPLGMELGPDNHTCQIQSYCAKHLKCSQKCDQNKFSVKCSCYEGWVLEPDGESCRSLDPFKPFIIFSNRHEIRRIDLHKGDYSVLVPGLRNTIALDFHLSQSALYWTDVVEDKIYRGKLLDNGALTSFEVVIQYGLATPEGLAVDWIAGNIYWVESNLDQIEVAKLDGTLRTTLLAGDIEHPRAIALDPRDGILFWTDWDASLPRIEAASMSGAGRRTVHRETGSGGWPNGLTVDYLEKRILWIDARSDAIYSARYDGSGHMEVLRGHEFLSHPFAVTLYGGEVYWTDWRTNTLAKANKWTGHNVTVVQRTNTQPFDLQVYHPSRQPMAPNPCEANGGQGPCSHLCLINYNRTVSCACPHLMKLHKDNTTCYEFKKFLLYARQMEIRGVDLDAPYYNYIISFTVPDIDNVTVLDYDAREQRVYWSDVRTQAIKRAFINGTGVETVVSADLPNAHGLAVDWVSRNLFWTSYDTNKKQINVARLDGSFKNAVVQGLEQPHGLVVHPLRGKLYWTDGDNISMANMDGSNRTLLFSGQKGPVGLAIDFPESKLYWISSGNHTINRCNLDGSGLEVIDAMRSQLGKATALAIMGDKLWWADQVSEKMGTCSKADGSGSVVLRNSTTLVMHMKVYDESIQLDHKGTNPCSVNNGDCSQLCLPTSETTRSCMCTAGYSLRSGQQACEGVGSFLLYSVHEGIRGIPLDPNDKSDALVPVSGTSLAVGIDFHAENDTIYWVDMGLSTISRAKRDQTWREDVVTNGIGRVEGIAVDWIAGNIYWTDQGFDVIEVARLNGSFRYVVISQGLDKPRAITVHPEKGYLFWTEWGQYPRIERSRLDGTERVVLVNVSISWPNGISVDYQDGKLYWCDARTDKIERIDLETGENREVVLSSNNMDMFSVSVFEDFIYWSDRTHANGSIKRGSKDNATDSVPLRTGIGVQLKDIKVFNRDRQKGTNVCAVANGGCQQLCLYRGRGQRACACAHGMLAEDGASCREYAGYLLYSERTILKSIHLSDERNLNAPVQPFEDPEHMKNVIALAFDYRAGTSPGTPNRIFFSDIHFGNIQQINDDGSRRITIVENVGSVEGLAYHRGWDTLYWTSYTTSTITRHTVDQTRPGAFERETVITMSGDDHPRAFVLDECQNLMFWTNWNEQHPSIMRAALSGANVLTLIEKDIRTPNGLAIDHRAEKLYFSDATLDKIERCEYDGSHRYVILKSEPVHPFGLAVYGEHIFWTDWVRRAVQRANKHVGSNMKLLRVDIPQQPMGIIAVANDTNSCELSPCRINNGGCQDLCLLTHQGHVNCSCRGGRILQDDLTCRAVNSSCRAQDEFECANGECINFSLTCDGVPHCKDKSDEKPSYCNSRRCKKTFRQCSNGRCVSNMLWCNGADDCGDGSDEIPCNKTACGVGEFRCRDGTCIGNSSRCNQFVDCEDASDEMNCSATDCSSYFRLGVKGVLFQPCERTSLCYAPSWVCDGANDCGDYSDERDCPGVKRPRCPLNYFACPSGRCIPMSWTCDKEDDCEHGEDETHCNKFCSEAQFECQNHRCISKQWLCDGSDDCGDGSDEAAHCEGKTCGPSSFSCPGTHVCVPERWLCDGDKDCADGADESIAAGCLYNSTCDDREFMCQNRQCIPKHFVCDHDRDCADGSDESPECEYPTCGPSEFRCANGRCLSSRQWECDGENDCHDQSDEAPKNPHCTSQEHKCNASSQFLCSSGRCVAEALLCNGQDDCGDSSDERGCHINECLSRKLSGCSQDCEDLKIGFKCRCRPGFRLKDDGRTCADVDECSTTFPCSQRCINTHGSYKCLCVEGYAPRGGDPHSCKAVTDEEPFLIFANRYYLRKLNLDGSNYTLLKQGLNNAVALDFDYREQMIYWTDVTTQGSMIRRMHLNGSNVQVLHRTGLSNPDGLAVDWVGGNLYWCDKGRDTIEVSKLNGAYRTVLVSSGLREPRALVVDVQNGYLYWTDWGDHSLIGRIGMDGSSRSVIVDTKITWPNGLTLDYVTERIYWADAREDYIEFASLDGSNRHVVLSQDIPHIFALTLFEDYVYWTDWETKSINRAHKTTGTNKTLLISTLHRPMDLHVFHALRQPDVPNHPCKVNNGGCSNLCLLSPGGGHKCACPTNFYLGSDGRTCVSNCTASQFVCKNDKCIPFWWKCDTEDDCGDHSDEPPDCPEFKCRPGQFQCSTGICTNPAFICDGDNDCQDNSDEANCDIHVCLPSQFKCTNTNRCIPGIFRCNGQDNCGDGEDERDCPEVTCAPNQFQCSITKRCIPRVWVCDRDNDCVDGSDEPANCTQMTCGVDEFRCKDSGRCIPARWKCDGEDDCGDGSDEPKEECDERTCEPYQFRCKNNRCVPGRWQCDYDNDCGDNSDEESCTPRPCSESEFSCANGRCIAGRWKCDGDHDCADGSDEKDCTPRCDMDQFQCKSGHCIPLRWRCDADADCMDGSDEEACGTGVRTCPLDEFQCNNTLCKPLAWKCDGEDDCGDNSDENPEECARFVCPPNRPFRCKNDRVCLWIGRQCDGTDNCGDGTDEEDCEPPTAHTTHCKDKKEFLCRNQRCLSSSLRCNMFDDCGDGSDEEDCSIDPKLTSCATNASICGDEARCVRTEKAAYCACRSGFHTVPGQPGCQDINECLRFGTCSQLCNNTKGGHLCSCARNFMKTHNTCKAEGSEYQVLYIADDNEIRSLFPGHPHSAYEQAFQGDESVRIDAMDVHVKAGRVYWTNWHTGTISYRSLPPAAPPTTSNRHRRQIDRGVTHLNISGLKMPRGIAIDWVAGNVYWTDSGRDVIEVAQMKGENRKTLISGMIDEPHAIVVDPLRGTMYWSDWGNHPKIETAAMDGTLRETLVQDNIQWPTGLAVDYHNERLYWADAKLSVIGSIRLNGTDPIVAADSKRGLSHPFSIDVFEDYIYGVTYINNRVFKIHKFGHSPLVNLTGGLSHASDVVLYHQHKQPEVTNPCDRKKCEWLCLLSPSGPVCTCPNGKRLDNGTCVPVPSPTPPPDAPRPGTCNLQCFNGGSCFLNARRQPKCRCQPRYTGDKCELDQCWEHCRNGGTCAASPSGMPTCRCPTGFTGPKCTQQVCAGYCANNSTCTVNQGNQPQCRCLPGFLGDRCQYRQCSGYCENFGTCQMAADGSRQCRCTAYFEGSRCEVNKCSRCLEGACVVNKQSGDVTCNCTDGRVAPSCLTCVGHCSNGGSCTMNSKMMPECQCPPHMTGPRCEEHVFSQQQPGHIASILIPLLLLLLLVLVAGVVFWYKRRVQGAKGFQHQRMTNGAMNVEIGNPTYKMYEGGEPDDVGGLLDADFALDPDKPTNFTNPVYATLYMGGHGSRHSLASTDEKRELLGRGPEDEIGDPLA
mannose-6-phosphate receptor on GM244 human fibroblasts (human), sequence (O00264 whole entry): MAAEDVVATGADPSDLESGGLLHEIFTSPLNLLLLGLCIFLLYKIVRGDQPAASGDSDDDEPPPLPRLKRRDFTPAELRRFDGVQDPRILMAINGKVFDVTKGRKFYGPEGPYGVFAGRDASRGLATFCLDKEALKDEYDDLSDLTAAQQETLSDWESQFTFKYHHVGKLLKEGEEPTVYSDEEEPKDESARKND

Consider “RAP-GAA fusion (human RAP fused N-terminally to human alpha-glucosidase)”, for which, in assay [1], the Kuptake, uptake into GM244 fibroblasts measured by GAA enzyme activity came out at 19 nM; the percent of RAP-GAA uptake into GM244 fibroblasts inhibited by free RAP stood at 90%; the uptake into GM244 fibroblasts relative to recombinant GAA (Vmax ratio) stood at 60 fold; the uptake into GM244 fibroblasts relative to recombinant GAA at 10 nM amounted to 25 fold. Moreover, in the assay with LRP, the Kuptake ratio (fusion/enzyme), RAP-GAA against rhGAA, fibroblast (ratio (fusion/enzyme)) was found to be 25; the Uptake ratio (fusion/enzyme), RAP-GAA against rhGAA, C2C12 myoblast, 5 nM (ratio (fusion/enzyme)) came to 18; the Uptake ratio (fusion/enzyme), RAP-GAA against rhGAA, C6 glioma, 5 nM (ratio (fusion/enzyme)) was 8; the Uptake ratio (fusion/enzyme), RAP-GAA against rhGAA, fibroblast, 5 nM (ratio (fusion/enzyme)) came out at 9. In the assay with LRP, the Uptake ratio (fusion/enzyme), RAP-GAA against rhGAA, fibroblast, 50 nM (ratio (fusion/enzyme)) amounted to 37 and the Uptake ratio (fusion/enzyme), RAP-GAA against rhGAA, fibroblast, saturation (ratio (fusion/enzyme)) is 70. This substance also had a percent of RAP-GAA uptake into GM244 fibroblasts inhibited by mannose 6-phosphate in assay [2] of 20%.
